Laboratory results reported in patent US20250188457A1, “COMPOSITIONS AND METHODS FOR THE TREATMENT OF GLIOBLASTOMA BY INHIBITION OF THE TFPI2-CD51-STAT6 SIGNALING AXIS” (Northwestern University, priority 2023, published 2025).

Legend:
[1] = tested on: HMC3 microglia; assay: Incucyte live-cell and scratch wound healing migration of microglia; type: cell-based, human; settings: TFPI2 recombinant protein 20 ng/ml; AS1517499 25 nM
Protocol: The scratch-wound assay was performed (Ref. 74; incorporated by reference in its entirety). For tracking single cell movement, microglia were cultured in 96-well plates (Corning, #3599) with different treatments. Incucyte Live Cell Analysis System was used to record cell movement over time. The time-lapse images were reconstructed and analyzed using TrackMate (Refs. 75-76; incorporated by reference in its entirety). The speed of each individual cell was calculated by processing images with LoG detector and Linear Assignment Problem (LAP) tracker.

[2] = tested on: STAT6; assay: Immunoblot and flow cytometry for P-STAT6 in microglia; type: cell-based, human and mouse; settings: TFPI2 recombinant protein, indicated concentrations and time points
Protocol: (§1) The protein expression in cells was determined by western blotting analysis (Ref. 61; incorporated by reference in its entirety). Cells were homogenized in RIPA lysis buffer containing phosphatase/protease cocktail inhibitors (Cell Signaling Technology, #5870). The protein concentration was determined by BCA Protein Assay Kit (Thermo Fisher Scientific, #P123225). Protein solution was mixed with the Leammli sample buffer and heated at 95° C. before loading to SurePAGE gels (GenScript, #M00653). The gels were run at a constant voltage of 80 V and then transferred to 0.2 μm nitrocellulose membrane (Bio-Rad, #1620112) using the Trans-Blot Turbo system (Bio-Rad) with a preprogrammed standard protocol for 30 min. Nitrocellulose membrane was incubated with 5% dry milk to block any unspecific staining. […]

[3] = molecular target: T1, CD51 (integrin alpha V, ITGAV) on human microglia (HMC3 cell line, primary human microglia PrhMG) (human, UniProt P06756 31-1048); assay: IP-MS: membrane proteins of PrhMG incubated with TFPI2 recombinant protein, immunoprecipitated with TFPI2 antibody, LC-MS; CD51 is one of the enriched membrane protein candidates
T1 construct: whole, on cells; Endogenous protein of human microglia; also called Integrin aV/CD51
T1 sequence (P06756 31-1048): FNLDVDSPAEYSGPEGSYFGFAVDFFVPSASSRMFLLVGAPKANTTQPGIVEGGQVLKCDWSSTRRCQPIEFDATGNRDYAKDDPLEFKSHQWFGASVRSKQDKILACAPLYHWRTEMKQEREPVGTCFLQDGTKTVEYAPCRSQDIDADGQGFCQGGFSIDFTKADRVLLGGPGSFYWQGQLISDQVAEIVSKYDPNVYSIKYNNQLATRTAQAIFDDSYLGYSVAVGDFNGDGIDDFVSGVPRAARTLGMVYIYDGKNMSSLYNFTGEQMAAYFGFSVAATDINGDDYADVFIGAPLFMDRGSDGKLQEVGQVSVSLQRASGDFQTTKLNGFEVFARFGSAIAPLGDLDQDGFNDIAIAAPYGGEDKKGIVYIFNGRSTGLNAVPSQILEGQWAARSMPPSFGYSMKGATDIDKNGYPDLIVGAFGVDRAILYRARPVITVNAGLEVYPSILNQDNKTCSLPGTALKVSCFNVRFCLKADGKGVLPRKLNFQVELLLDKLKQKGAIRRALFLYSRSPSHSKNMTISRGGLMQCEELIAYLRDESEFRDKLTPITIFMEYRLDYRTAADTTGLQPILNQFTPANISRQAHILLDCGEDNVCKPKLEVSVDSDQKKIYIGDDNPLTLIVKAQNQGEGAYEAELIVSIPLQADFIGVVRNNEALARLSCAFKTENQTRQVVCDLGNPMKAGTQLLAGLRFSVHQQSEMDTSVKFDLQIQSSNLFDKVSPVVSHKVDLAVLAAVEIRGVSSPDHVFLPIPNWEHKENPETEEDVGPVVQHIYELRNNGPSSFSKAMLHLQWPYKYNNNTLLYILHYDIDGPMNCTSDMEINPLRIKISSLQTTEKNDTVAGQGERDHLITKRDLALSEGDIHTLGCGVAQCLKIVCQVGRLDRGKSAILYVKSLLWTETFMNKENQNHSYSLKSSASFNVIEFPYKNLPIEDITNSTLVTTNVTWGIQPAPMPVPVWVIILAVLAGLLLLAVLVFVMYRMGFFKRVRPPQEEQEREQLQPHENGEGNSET
Protocol: Permeabilized cells were centrifuged for 15 min at 16,000 g to remove the supernatant containing cytosolic proteins. The cell pellets were then incubated with 0.5 ml solubilization buffer at 4° C. for 30 min with constant mixing. Solubilized membrane and membrane-associated proteins were isolated by centrifuging at 16,000 g for 15 min at 4° C. Extracted membrane-associated proteins were proceeded for IP-MS pull-down assay. A total of […] cell membrane lysate was incubated with […] TFPI2 antibody (Abcam, #ab186747) or IgG control (Cell Signaling Technology, #2729) for 12 hrs with gentle rotation at 4° C. […] Protein A/G PLUS-Agarose (#sc-2003, Santa Cruz Biotechnology) were mixed with each sample on ice. The lysate bead mixture was incubated at 4° C. under rotary agitation for 4 hrs. The tubes were centrifuged to remove supernatant. The beads were then washed in lysis buffer three times to remove non-specific binding. After removing wash buffer, the complex was washed with pre-urea wash buffer (50 mM Tris pH 8.5, 1 mM EGTA, 75 mM KCl) to remove all residual supernatant. […] IP pulled-down samples were analyzed by LC-MS/MS using a Dionex UltiMate 3000 Rapid Separation nanoLC coupled to the Orbitrap Elite Mass Spectrometer (Thermo Fisher Scientific Inc, San Jose, CA). […]

[4] = tested on: GSC262, GSC23 and GSC20 cells; assay: Immunoblot for CD133 and SOX2 in GSCs; type: cell-based, human; settings: TFPI2 recombinant protein at indicated concentrations for 24 hrs
Protocol: as §1

Row | fold change in TFPI2 IP group versus control IgG group [3] | Molecule | TFPI2-induced HMC3 microglia migration, incucyte live-cell and scratch assays [1] | phosphorylation of STAT6 in human and mouse microglia [2] | expression of stemness-associated factors CD133 and SOX2 [4]
1 |  | NC(=O)c1cnc(NCCc2ccc(O)c(Cl)c2)nc1NCc1ccccc1 [AS1517499] | impairment |  | 
2 | ≥ 2 fold | TFPI2 recombinant protein (tissue factor pathway inhibitor 2; BioVision, #7481-10) (ligand, UniProt P48307 23-235, looked up, Bought recombinant protein added to microglia at 20 ng/ml; also called recombinant TFPI2; secreted TFPI2) DAAQEPTGNNAEICLLPLDYGPCRALLLRYYYDRYTQSCRQFLYGGCEGNANNFYTWEACDDACWRIEKVPKVCRLQVSVDDQCEGSTEKYFFNLSSMTCEKFFSGGCHRNRIENRFPDEATCMGFCAPKKIPSFCYSPKDEGLCSANVTRYYFNPRYRTCDAFTYTGCGGNDNNFVSREDCKRACAKALKKKKKMPKLRFASRIRKIRKKQF |  | increased | increased
